T1: UNC5A (human, UniProt Q6ZN44)
T1 construct: expressed on cells; also called UNC5A expressed on cells
T1 sequence (cell-surface-expressed binding partner, looked up): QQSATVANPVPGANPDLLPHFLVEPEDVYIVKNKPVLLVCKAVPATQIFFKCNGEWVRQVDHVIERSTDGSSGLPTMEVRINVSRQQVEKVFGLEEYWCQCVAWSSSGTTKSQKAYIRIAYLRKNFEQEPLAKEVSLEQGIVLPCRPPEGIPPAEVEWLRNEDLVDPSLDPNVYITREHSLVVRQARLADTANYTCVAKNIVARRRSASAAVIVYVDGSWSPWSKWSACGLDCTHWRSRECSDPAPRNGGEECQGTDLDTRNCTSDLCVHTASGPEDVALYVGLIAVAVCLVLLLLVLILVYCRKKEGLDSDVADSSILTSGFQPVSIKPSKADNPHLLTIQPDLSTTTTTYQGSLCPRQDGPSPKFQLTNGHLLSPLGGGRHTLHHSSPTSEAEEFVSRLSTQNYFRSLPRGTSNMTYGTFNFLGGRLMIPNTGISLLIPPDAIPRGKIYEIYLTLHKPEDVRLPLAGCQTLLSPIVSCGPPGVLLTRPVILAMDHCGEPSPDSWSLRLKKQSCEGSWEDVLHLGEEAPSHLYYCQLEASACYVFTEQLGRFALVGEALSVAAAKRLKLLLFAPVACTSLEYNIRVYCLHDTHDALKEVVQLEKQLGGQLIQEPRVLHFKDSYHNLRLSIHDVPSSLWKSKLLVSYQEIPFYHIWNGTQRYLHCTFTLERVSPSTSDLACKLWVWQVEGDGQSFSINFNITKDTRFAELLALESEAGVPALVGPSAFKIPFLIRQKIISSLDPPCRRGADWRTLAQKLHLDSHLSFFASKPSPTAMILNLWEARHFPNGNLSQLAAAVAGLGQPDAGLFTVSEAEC

T2: LRRC4B expressed on cells (human, UniProt Q9NT99 36-713)
T2 construct: whole, on cells; C-terminally tagged in the co-IP; also called NGL-3; LRRC4B-FLAG
T2 sequence (looked up): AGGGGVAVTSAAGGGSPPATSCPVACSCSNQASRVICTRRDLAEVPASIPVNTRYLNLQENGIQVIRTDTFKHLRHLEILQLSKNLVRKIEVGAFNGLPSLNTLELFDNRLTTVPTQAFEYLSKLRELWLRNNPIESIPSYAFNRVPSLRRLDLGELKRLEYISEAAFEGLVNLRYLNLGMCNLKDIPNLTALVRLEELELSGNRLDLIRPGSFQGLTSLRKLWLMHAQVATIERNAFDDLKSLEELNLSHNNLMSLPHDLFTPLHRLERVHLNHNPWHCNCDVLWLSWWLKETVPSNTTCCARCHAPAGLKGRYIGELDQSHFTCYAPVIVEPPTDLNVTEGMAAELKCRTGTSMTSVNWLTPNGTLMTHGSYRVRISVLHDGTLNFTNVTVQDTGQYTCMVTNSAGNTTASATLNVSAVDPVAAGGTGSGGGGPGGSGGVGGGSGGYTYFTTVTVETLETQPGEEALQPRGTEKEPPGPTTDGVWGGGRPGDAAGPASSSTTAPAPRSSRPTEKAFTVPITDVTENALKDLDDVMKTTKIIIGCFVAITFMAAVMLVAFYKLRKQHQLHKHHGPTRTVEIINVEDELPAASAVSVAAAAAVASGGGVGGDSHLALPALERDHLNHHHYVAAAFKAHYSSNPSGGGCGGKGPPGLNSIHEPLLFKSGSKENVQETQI

T3: CD96 (human, UniProt P40200)
T3 construct: expressed on cells; also called CD96 expressed on cells
T3 sequence (cell-surface-expressed binding partner, looked up): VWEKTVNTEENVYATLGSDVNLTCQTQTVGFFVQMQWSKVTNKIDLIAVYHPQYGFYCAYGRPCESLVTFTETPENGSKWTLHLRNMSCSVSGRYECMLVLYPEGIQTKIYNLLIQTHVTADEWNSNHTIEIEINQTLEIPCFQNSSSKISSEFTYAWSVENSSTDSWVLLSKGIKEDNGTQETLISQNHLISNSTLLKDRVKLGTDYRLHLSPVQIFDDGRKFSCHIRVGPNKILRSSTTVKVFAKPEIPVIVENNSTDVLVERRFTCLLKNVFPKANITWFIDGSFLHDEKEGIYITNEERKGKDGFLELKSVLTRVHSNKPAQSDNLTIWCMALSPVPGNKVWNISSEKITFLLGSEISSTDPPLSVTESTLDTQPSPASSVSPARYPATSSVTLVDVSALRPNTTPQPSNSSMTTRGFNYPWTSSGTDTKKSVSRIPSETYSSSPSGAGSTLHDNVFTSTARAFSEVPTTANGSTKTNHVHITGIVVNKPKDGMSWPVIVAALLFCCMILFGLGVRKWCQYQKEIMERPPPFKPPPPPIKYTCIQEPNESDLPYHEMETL

B1: LILRA5 extracellular domain (receptor)
chain: not shown
notes: extracellular domain; Soluble query, streptavidin tetramer
B2: EDAR extracellular domain (receptor, human, UniProt Q9UNE0 27-187, looked up)
chain: EYSNCGENEYYNQTTGLCQECPPCGPGEEPYLSCGYGTKDEDYGCVPCPAEKFSKGGYQICRRHKDCEGFFRATVLTPGDMENDAECGPCLPGYYMLENRPRNIYGMVCYSCLLAPPNTKECVGATSGASANFPGTSGSSTLSPFQHAHKELSGQGHLATA
notes: as for B1
B3: FLRT2 (receptor, human, UniProt O43155 36-541, looked up)
soluble query ectodomain: CPSVCRCDRNFVYCNERSLTSVPLGIPEGVTVLYLHNNQINNAGFPAELHNVQSVHTVYLYGNQLDEFPMNLPKNVRVLHLQENNIQTISRAALAQLLKLEELHLDDNSISTVGVEDGAFREAISLKLLFLSKNHLSSVPVGLPVDLQELRVDENRIAVISDMAFQNLTSLERLIVDGNLLTNKGIAEGTFSHLTKLKEFSIVRNSLSHPPPDLPGTHLIRLYLQDNQINHIPLTAFSNLRKLERLDISNNQLRMLTQGVFDNLSNLKQLTARNNPWFCDCSIKWVTEWLKYIPSSLNVRGFMCQGPEQVRGMAVRELNMNLLSCPTTTPGLPLFTPAPSTASPTTQPPTLSIPNPSRSYTPPTPTTSKLPTIPDWDGRERVTPPISERIQLSIHFVNDTSIQVSWLSLFTVMAYKLTWVKMGHSLVGGIVQERIVSGEKQHLSLVNLEPRSTYRICLVPLDAFNYRAVEDTICSEATTHASYLNNGSNTASSHEQTTSHSMGSPF
modifications: biotinylated
notes: extracellular domain; also called soluble query
B4: CD226 (receptor, human, UniProt Q15762 19-336, looked up)
cell-surface-expressed binding partner: EEVLWHTSVPFAENMSLECVYPSMGILTQVEWFKIGTQQDSIAIFSPTHGMVIRKPYAERVYFLNSTMASNNMTLFFRNASEDDVGYYSCSLYTYPQGTWQKVIQVVQSDSFEAAVPSNSHIVSEPGKNVTLTCQPQMTWPVQAVRWEKIQPRQIDLLTYCNLVHGRNFTSKFPRQIVSNCSHGRWSVIVIPDVTVSDSGLYRCYLQASAGENETFVMRLTVAEGKTDNQYTLFVAGGTVLLLLFVISITTIIVIFLNRRRRRERRDLFTESWDTQKAPNNYRSPISTSQPTNQSMDDTREDIYVNYPTFSRRPKTRV
notes: expressed on cells; also called CD226 expressed on cells
B5: BTN3A3 extracellular domain (receptor)
chain: not shown
notes: as for B1
B6: TIGIT (receptor, human, UniProt Q495A1 22-244, looked up)
cell-surface-expressed binding partner: MMTGTIETTGNISAEKGGSIILQCHLSSTTAQVTQVNWEQQDQLLAICNADLGWHISPSFKDRVAPGPGLGLTLQSLTVNDTGEYFCIYHTYPDGTYTGRIFLEVLESSVAEHGARFQIPLLGAMAATLVVICTAVIVVVALTRKKKALRIHSVEGDLRRKSAGQEEWSPSAPSPPGSCVQAEAAPAGLCGEQRGEDCAELHDYFNVLSYRSLGNCSFFTETG
notes: expressed on cells; also called TIGIT expressed on cells
B7: SLITRK3 extracellular domain (receptor, human, UniProt O94933 29-654, looked up)
chain: TPIPLIEDSEEIDEPCFDPCYCEVKESLFHIHCDSKGFTNISQITEFWSRPFKLYLQRNSMRKLYTNSFLHLNNAVSINLGNNALQDIQTGAFNGLKILKRLYLHENKLDVFRNDTFLGLESLEYLQADYNVIKRIESGAFRNLSKLRVLILNDNLIPMLPTNLFKAVSLTHLDLRGNRLKVLFYRGMLDHIGRSLMELQLEENPWNCTCEIVQLKSWLERIPYTALVGDITCETPFHFHGKDLREIRKTELCPLLSDSEVEASLGIPHSSSSKENAWPTKPSSMLSSVHFTASSVEYKSSNKQPKPTKQPRTPRPPSTSQALYPGPNQPPIAPYQTRPPIPIICPTGCTCNLHINDLGLTVNCKERGFNNISELLPRPLNAKKLYLSSNLIQKIYRSDFWNFSSLDLLHLGNNRISYVQDGAFINLPNLKSLFLNGNDIEKLTPGMFRGLQSLHYLYFEFNVIREIQPAAFSLMPNLKLLFLNNNLLRTLPTDAFAGTSLARLNLRKNYFLYLPVAGVLEHLNAIVQIDLNENPWDCTCDLVPFKQWIETISSVSVVGDVLCRSPENLTHRDVRTIELEVLCPEMLHVAPAGESPAQPGDSHLIGAPTSASPYEFSPPGGPVPLS
notes: extracellular domain; Streptavidin tetramer in cell assay; ECD-Fc prey in the variant screen
B8: PVR (receptor, human, UniProt P15151 21-343, looked up)
soluble query ectodomain: WPPPGTGDVVVQAPTQVPGFLGDSVTLPCYLQVPNMEVTHVSQLTWARHGESGSMAVFHQTQGPSYSESKRLEFVAARLGAELRNASLRMFGLRVEDEGNYTCLFVTFPQGSRSVDIWLRVLAKPQNTAEVQKVQLTGEPVPMARCVSTGGRPPAQITWHSDLGGMPNTSQVPGFLSGTVTVTSLWILVPSSQVDGKNVTCKVEHESFEKPQLLTVNLTVYYPPEVSISGYDNNWYLGQNEATLTCDARSNPEPTGYNWSTTMGPLPPFAVAQGAQLLIRPVDKPINTTLICNVTNALGARQAELTVQVKEGPPSEHSGISRN
modifications: biotinylated
notes: extracellular domain; also called poliovirus receptor; monomeric or tetrameric PVR ectodomain
B9: BTN3A1 extracellular domain (receptor)
chain: not shown
notes: as for B1

How the values were obtained:
[1] = biological target: T4, LILRB1 expressed on cells (human, UniProt Q8NHL6 24-650); experiment: cell surface interaction assay: ECD tetramer on transfected cells (FIG. 5N)
T4 construct: whole, on cells; C-terminally tagged in the co-IP; also called LILRB1-FLAG

UNC5A = biological target: T1, UNC5A; experiment: cell surface interaction assay: query ECD tetramerised with fluorescent streptavidin on transfected cells, immunofluorescence
PVR [2] = biological target: B8; experiment: cell surface binding of monomeric or streptavidin-tetramerised PVR ectodomain to CD226-expressing cells, normalized fluorescence intensity
[3] = biological target: T2, LRRC4B expressed on cells; experiment: cell surface interaction assay: streptavidin-tetramerized biotinylated ECD on transfected cells, immunofluorescence
PVR [4] = biological target: B8; experiment: cell surface binding of monomeric or streptavidin-tetramerised PVR ectodomain to TIGIT-expressing cells, normalized fluorescence intensity
PTPRS expressed on cells = biological target: T5, PTPRS expressed on cells (human, UniProt Q13332 30-1948); experiment: cell surface interaction assay: streptavidin-tetramerized biotinylated ECD on transfected cells, immunofluorescence
T5 construct: whole, on cells; also called receptor-type tyrosine-protein phosphatase S

PTPRD expressed on cells = biological target: T6, PTPRD expressed on cells (human, UniProt P23468 21-1912); experiment: as above
T6 construct: whole, on cells; also called receptor-type tyrosine-protein phosphatase delta

CD96 = biological target: T3, CD96; experiment: cell surface binding of monomeric or streptavidin-tetramerised PVR ectodomain to CD96-expressing cells, normalized fluorescence intensity

T4 sequence (Q8NHL6 24-650): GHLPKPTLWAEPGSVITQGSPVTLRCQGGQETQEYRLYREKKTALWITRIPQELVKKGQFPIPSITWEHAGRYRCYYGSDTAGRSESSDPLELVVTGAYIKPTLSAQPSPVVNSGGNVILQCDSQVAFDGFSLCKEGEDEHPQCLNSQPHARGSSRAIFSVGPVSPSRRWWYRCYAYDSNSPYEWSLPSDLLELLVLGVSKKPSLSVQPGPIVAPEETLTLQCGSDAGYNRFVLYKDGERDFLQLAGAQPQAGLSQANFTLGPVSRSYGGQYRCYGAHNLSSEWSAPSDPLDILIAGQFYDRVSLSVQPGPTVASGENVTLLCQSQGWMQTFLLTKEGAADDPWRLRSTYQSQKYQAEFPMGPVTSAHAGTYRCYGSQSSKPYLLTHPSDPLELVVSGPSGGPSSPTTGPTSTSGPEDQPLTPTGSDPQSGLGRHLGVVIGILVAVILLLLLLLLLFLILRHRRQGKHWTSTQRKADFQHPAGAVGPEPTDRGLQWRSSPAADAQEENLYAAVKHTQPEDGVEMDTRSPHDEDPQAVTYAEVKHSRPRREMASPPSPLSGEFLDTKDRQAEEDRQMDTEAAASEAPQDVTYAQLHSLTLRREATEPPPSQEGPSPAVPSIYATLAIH
T6 sequence (P23468 21-1912): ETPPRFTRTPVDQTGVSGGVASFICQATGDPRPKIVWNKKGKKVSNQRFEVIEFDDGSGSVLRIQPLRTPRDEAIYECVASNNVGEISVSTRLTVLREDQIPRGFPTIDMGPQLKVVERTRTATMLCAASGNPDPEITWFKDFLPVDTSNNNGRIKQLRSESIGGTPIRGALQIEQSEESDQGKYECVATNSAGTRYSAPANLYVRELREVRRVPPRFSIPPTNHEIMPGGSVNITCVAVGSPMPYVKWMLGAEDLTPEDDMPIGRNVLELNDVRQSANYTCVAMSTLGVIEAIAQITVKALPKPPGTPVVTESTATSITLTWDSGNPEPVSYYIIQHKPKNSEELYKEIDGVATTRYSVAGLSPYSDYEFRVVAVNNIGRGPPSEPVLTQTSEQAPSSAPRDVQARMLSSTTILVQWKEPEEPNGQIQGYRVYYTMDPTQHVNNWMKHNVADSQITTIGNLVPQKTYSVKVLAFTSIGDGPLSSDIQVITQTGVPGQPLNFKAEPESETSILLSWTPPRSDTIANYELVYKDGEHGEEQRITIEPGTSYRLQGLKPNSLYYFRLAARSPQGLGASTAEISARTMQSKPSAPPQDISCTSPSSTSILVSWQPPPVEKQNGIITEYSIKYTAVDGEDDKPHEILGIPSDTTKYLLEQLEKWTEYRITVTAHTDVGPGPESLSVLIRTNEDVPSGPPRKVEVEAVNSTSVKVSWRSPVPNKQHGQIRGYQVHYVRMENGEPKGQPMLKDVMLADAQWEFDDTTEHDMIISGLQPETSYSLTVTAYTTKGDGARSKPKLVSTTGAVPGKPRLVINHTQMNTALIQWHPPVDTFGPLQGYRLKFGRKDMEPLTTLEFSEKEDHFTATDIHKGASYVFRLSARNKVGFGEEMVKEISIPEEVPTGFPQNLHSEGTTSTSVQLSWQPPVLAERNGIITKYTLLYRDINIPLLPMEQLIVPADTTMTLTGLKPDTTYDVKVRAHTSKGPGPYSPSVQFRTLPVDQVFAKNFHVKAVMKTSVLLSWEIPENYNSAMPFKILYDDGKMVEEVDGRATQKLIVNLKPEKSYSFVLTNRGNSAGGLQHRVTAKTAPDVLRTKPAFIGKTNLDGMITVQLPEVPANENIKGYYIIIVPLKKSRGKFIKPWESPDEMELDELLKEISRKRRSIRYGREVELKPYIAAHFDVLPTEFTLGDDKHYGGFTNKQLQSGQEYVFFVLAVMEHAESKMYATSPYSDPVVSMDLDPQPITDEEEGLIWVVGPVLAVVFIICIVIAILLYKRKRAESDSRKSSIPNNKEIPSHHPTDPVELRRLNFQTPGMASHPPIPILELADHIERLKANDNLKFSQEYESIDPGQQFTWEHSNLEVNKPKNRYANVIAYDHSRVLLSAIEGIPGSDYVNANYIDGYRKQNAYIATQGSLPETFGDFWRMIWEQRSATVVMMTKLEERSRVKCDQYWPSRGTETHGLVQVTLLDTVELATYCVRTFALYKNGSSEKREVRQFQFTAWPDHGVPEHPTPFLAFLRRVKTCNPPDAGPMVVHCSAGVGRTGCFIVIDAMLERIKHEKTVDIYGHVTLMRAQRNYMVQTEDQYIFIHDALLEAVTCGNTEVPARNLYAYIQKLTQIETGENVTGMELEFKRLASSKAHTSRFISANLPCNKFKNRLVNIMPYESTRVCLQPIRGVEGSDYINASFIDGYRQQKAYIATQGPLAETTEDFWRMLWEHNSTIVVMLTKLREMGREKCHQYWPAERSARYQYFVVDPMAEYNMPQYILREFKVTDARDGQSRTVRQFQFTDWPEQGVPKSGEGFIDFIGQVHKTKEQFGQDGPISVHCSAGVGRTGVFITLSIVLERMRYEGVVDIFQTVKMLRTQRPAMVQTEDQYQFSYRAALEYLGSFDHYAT
T5 sequence (Q13332 30-1948): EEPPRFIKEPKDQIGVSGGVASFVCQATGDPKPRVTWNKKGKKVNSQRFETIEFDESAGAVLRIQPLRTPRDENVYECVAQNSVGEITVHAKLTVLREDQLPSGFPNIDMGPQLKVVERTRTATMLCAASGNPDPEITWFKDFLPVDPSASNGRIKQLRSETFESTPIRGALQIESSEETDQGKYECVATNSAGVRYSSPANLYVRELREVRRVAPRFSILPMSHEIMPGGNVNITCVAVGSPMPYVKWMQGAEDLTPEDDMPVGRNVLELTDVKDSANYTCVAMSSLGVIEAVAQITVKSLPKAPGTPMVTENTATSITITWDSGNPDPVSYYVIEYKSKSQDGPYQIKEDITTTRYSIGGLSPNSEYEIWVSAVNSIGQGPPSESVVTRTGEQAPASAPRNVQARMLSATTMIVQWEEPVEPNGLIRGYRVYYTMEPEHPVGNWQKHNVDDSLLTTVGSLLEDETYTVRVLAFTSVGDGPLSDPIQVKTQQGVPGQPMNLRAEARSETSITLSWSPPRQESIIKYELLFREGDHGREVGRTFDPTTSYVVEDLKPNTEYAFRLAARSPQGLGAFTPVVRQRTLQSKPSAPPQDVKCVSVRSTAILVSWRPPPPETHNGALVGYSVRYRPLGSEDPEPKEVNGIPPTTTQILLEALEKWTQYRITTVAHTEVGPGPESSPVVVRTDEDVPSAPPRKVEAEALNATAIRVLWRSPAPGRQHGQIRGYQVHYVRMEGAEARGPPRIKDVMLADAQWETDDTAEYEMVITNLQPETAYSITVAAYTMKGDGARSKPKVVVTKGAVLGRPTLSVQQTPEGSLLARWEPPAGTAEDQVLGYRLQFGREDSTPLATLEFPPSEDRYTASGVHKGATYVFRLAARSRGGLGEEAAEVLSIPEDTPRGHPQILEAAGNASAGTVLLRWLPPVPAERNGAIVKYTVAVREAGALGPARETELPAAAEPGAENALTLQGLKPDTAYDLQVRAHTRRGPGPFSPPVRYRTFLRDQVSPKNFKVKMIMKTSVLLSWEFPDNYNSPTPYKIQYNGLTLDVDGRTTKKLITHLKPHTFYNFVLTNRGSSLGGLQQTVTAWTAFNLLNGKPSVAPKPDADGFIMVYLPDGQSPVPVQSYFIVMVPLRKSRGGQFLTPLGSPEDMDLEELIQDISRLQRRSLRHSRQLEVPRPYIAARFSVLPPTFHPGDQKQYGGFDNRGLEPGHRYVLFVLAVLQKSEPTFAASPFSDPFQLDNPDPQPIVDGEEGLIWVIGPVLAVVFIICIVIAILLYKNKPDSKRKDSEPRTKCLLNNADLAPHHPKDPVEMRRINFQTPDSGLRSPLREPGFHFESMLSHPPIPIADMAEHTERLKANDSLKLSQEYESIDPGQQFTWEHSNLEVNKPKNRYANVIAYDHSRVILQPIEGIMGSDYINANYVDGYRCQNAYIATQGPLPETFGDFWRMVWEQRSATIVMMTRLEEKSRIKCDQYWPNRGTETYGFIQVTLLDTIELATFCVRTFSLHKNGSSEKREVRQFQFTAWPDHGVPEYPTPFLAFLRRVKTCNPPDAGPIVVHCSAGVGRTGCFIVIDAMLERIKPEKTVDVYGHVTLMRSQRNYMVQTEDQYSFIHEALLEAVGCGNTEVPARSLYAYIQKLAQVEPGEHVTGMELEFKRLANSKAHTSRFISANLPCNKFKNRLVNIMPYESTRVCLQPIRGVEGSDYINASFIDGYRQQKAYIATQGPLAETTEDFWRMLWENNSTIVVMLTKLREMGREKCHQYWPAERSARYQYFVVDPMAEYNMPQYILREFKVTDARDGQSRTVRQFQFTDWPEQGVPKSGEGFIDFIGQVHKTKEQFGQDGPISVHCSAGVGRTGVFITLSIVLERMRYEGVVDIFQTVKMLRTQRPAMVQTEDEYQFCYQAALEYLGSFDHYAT

B1: binds [1].

B2: binds [1].

B3: binds (UNC5A).

B4: binds (PVR [2]).

B5: binds [3].

B6: binds (PVR [4]).

B7: binds (PTPRS expressed on cells); binds (PTPRD expressed on cells).

B8: binds (CD96).

B9: binds [3].

— patent US20220119490A1 (Genentech, published 2022)
